Series [1] has as its target CH01 inferred germline-reverted (iGL) antibody. Put plainly: BLI (Octet). The following applies: parent: est. 0.12; read off a plot. (In BLI a coated tip is dipped into the sample, and binding shifts an interference pattern.)
The target in a further series is CAP256 UCA. The series is described as follows: BLI (Octet). To be noted: parent: est. 0.19; read off a plot.
In series [2] the target is MT145K SOSIP.664 trimer (SIVcpzPtt (chimpanzee SIV), isolate MT145). The series is described as follows: cryo-EM structure; unliganded MT145K trimer, global resolution ~4.1 Å.
Series [3] in a line: pseudovirus neutralization, TZM-bl cells, ID50. The following applies: glycan lost; control: MT145K virus.

Take MT145K SOSIP.664 trimer R166S: the response in series [1] was 0.1 nm.

For MT145K SOSIP.664 trimer N160K, the response in series [1] turned out to be 0.04 nm; in the series with CAP256 UCA, 0.015 nm.

Usually stoichiometry N stands for the number of molecules, sites or subunits per partner or assembly. In series [2], MT145K SOSIP.664 trimer (complex) showed a stoichiometry N of 3.

MT145K SOSIP.664 trimer K171E: in series [1], the response came out at 0.015 nm.

B1: MT145K SOSIP.664 Env trimer (also MT145K Env pseudovirus): MT145K N160A (protein)
parent chain: MKVMGMKYYWWRNSCRSISIKLILIGWIASCFGEENWWVTVYYGVPVWREAKTTLFCASDAKSYSTEAHNIWATQACVPTDPTPQEVLLPNVTEEFNMWENYMVDQMQEDIISLWEQSLKPCVKLTPLCVTLTCNNPTNTSCTNSTDDRLGDMRNCSFNVTTELRDKKRQVYSLFYVEDITAIGNNSTYRLINCNTTAITQACPKTSFEPIPIHYCAPAGFALLKCNDIDYKGNETCKNVSTVHCTHGIKPVATTQLILNGSTADNQTVARIDPSENLAIIQLKDPVKITCRRPGNNTRGQIQIGPAMTFYNIENVVGDTRKAYCEINGTQWAKALNETKEVLRNILRKNISFMVPSGGDPEVTNHHFNCGGEFFYCNTSEIINITKINKTENMTIIPCRIRQIVNSWMRVGKGIFAPPIRGNITCTSNITGMLLEIHKNREDQGEDQDQNNTYVCLTGGNMKDIWRSELYKYKIVEIQPLGVAPTKSRRYAVEKQHHREKRALGLGALFLGFLGAAGSTMGAASVVLTVQARQLLTGIVQQQNNLLRAIEAQQHLLQLSVWGIKQLQARVLAVERYLRDQQLLGLWGCTGKTICPTAVRWNKTWGNISDYQVIWNNYTWQQWDREVNNYTGLIYTLLEEANTQQEKNEKELLELDSWANLWSWFDITNWLWYIKMFLIVVGGIIGLRICFAIGSLINRVRKGYSPLSLQTLIPANQGPDGLGETEKGGGENVRGRSIRLVSGFLPLVWEDLRNLLSFLYHQLRDCASLIWRLLEILGQYSLRGVQQIGTLLHQLRGTLQYWTTEIKNSAISLLDTTAIAVGEGTDRILEAITRLGRGILHIPRRIRQGLERALL
Regarding B1, the “other: neutralisation sensitivity” value in series [3] was “decreases”.

Source of the values: article PMC6533203.
